Here are results for 58 variants from the FLAb antibody collection (doi:10.7554/elife.23156).

The chains are these.
B1: scFv; the commonest letter at each place (parent)
chain 1: EVKLDETGGGLVQPGRPMKLSCVASGFTFSDYWMNWVRQSPEKGLEWVAQIRNKPYNYETYYSDSVKGRFTISRDDSKSSVYLQMNNLRVEDMGIYYCTGSYYGMDYWGQGTSVTVS
chain 2: DVVMTQTPLSLPVSLGDQASISCRSSQSLVHSNGNTYLRWYLQKPGQSPKVLIYKVSNRFSGVPDRFSGSGSGTDFTLKISRVEAEDLGVYFCSQSTHVPWTFGGGTKLEIK

Variants of B1 are the subject of the series “fluorescein”. Description: Kd (Tite-Seq). As to conditions: with fluorescein; format: scFv 4-4-20, heavy + light.
Series [1] covers variants of B1. The series can be described thus: yeast surface expression (ratio to wild type); higher = more expressed. As to conditions: format: scFv 4-4-20, heavy + light.

For the variant chain 1 G100N, in the series with fluorescein, the Kd is at least 10 µM. In addition, the yeast surface expression in series [1] is 0.668.

In the case of chain 1 G100K, the Kd in the series with fluorescein was at least 10 µM. Besides, in series [1], the yeast surface expression was determined as 0.395.

With chain 1 G100P, the dissociation constant (Kd) in the series with fluorescein was at least 10 µM. For the same variant, the yeast surface expression in series [1] turned out to be 0.758.

For chain 1 G100R, in the series with fluorescein, the Kd was at least 10 µM. In series [1], the yeast surface expression came to 0.624.

Consider chain 1 G100I, for which the dissociation constant (Kd) in the series with fluorescein was at least 10 µM. Further, in series [1], the yeast surface expression is 0.852.

On to chain 1 G100Q, for which the Kd in the series with fluorescein was at least 10 µM. The yeast surface expression in series [1] worked out at 0.476.

For chain 1 G100M, the Kd with fluorescein was at least 10 µM. For the same variant, the yeast surface expression in series [1] is 0.759.

With chain 1 G100K D106V, the dissociation constant (Kd) in the series with fluorescein was at least 10 µM. The yeast surface expression in series [1] worked out at 0.171.

For chain 1 G100K D106S, the dissociation constant Kd in the series with fluorescein is at least 10 µM. The yeast surface expression in series [1] worked out at 0.303.

As to chain 1 G100K D106C, the Kd with fluorescein was at least 10 µM. Also, the yeast surface expression in series [1] amounted to 0.0988.

For the variant chain 1 G100L G104S, the Kd with fluorescein was at least 10 µM. Besides, the yeast surface expression in series [1] stood at 0.51.

For the variant chain 1 G100I Y107P W108I, the Kd in the series with fluorescein was at least 10 µM. For the same variant, the yeast surface expression in series [1] was 0.471.

With chain 1 G100P G104H, the Kd in the series with fluorescein was at least 10 µM. The yeast surface expression in series [1] came to 0.68.

In the case of chain 1 G100P G104I, in the series with fluorescein, the Kd is at least 10 µM. In addition, the yeast surface expression in series [1] turned out to be 0.337.

Take chain 1 G100I S101Y Y107A: the Kd with fluorescein is at least 10 µM. Further, the yeast surface expression in series [1] amounted to 0.466.

With chain 1 G100H W108F, the Kd in the series with fluorescein stood at 0.00746 µM. In addition, the yeast surface expression in series [1] is 0.392.

On to chain 1 G100H W108D, for which the Kd in the series with fluorescein was at least 10 µM. Moreover, the yeast surface expression in series [1] came to 0.321.

On to chain 1 G100I Y103H, for which the dissociation constant Kd with fluorescein is at least 10 µM. Besides, the yeast surface expression in series [1] worked out at 0.94.

Consider chain 1 G100I Y103E, for which, in the series with fluorescein, the Kd is at least 10 µM. Further, the yeast surface expression in series [1] is 0.879.

Take chain 1 G100I Y103F: the Kd with fluorescein is at least 10 µM. For the same variant, the yeast surface expression in series [1] was 0.932.

For chain 1 G100H Y103Q G109A, in the series with fluorescein, the Kd was at least 10 µM. In addition, in series [1], the yeast surface expression worked out at 0.293.

As for chain 1 G100N Y102N, the equilibrium dissociation constant (Kd) in the series with fluorescein was at least 10 µM. In addition, in series [1], the yeast surface expression stood at 0.643.

Take chain 1 G100N Y102Q: the equilibrium dissociation constant (Kd) in the series with fluorescein is at least 10 µM. For the same variant, the yeast surface expression in series [1] stood at 0.746.

For the variant chain 1 G100L W108Q, the equilibrium dissociation constant (Kd) with fluorescein was at least 10 µM. The yeast surface expression in series [1] came to 0.477.

Turning to chain 1 G100M Y102V, the Kd with fluorescein is at least 10 µM. For the same variant, the yeast surface expression in series [1] was found to be 0.856.

Take chain 1 G100N M105T: the dissociation constant Kd with fluorescein was at least 10 µM. Also, in series [1], the yeast surface expression was 0.413.

Turning to chain 1 G100N M105Y, in the series with fluorescein, the Kd is at least 10 µM. Besides, the yeast surface expression in series [1] turned out to be 0.462.

For the variant chain 1 G100M M105P Y107D, the Kd in the series with fluorescein is at least 10 µM. In addition, the yeast surface expression in series [1] stood at 0.325.

On to chain 1 G100K Y107V, for which, in the series with fluorescein, the Kd was at least 10 µM. Further, in series [1], the yeast surface expression was 0.3.

As to chain 1 G100R G104S, the dissociation constant (Kd) in the series with fluorescein was at least 10 µM. Also, in series [1], the yeast surface expression amounted to 0.28.

chain 1 G100R G104Q: in the series with fluorescein, the Kd is at least 10 µM. For the same variant, in series [1], the yeast surface expression came to 0.217.

Take chain 1 G100H Y107H: the dissociation constant Kd with fluorescein is at least 10 µM. Further, the yeast surface expression in series [1] was found to be 0.348.

Turning to chain 1 G100I S101E, the Kd with fluorescein is at least 10 µM. The yeast surface expression in series [1] stood at 0.652.

For chain 1 G100Q Y103R D106L, the Kd with fluorescein is at least 10 µM. The yeast surface expression in series [1] was 0.235.

Regarding chain 1 G100P G109A, in the series with fluorescein, the Kd is at least 10 µM. For the same variant, in series [1], the yeast surface expression came out at 0.3.

chain 1 G100P G109S: in the series with fluorescein, the Kd is at least 10 µM. Moreover, the yeast surface expression in series [1] worked out at 0.485.

Take chain 1 G100Q G104E: the Kd with fluorescein is at least 10 µM. Besides, the yeast surface expression in series [1] turned out to be 0.38.

For the variant chain 1 G100P D106A, in the series with fluorescein, the equilibrium dissociation constant (Kd) was at least 10 µM. Also, the yeast surface expression in series [1] stood at 0.627.

As to chain 1 G100P D106M, the dissociation constant (Kd) with fluorescein is at least 10 µM. In series [1], the yeast surface expression was determined as 0.537.

For chain 1 G100L G104Q W108M, the dissociation constant (Kd) with fluorescein is at least 10 µM. The yeast surface expression in series [1] stood at 0.343.

chain 1 G100I Y103C M105Y: the equilibrium dissociation constant (Kd) with fluorescein was at least 10 µM. Moreover, the yeast surface expression in series [1] turned out to be 0.694.

As for chain 1 G100M M105F, the dissociation constant Kd in the series with fluorescein is at least 10 µM. Further, the yeast surface expression in series [1] came out at 0.769.

On to chain 1 G100M S101I G104T, for which the Kd with fluorescein was at least 10 µM. Moreover, the yeast surface expression in series [1] is 0.359.

For the variant chain 1 G100P M105A, the equilibrium dissociation constant (Kd) with fluorescein is at least 10 µM. Further, the yeast surface expression in series [1] was determined as 0.56.

Take chain 1 G100K W108H: the dissociation constant (Kd) with fluorescein was at least 10 µM. The yeast surface expression in series [1] came out at 0.249.

For the variant chain 1 G100N D106Y, in the series with fluorescein, the Kd is at least 10 µM. Also, the yeast surface expression in series [1] was found to be 0.146.

Take chain 1 G100N D106I: in the series with fluorescein, the dissociation constant (Kd) was at least 10 µM. Further, the yeast surface expression in series [1] was found to be 0.203.

As for chain 1 G100N D106N, the dissociation constant Kd with fluorescein is at least 10 µM. The yeast surface expression in series [1] is 0.287.

As for chain 1 G100M G109W, in the series with fluorescein, the dissociation constant Kd is at least 10 µM. In addition, in series [1], the yeast surface expression came to 0.185.

With chain 1 G100M G109M, the Kd with fluorescein is at least 10 µM. The yeast surface expression in series [1] turned out to be 0.274.

With chain 1 G100I S101G D106C, the Kd with fluorescein is at least 10 µM. Further, the yeast surface expression in series [1] is 0.777.

Consider chain 1 G100K M105D, for which the dissociation constant Kd in the series with fluorescein is at least 10 µM. The yeast surface expression in series [1] was determined as 0.375.

As to chain 1 G100R G109C, the dissociation constant (Kd) with fluorescein is at least 10 µM. For the same variant, the yeast surface expression in series [1] is 0.173.

As for chain 1 G100P Y102W, the Kd with fluorescein was at least 10 µM. Moreover, in series [1], the yeast surface expression was 0.682.

Turning to chain 1 G100R D106V, the Kd in the series with fluorescein is at least 10 µM. Further, the yeast surface expression in series [1] amounted to 0.108.

For the variant chain 1 G100Q S101Q, the Kd with fluorescein was at least 10 µM. Moreover, the yeast surface expression in series [1] amounted to 0.263.

Consider chain 1 G100R S101H, for which the Kd in the series with fluorescein was at least 10 µM. Further, the yeast surface expression in series [1] stood at 0.282.

Turning to chain 1 G100R S101I, the Kd in the series with fluorescein is at least 10 µM. The yeast surface expression in series [1] was determined as 0.352.
